Data reported in paper PMC11396700, “Synthesis and Biological Activity of Homohypotaurine Obtained by the Enzyme-Based Conversion of Homocysteine Sulfinic Acid Using Recombinant Escherichia Coli Glutamate Decarboxylase” (Molecules, 2024).

How the values were obtained:
[1] = target: T1, EcGadB (Escherichia coli, UniProt P69910); assay: decarboxylation; GABA quantified by end-point GABase assay (NADPH at […] nm), Michaelis-Menten fit; assay type: biochemical; settings: pyridine/HCl 0.2 M (0.1 M in Figure 2 legend), pH 4.6, 37 °C, 1 mM PLP, 0.1 mM DTT; 0.15-10 mM substrate
T1 construct: gene gadB; recombinant, purified full-length enzyme, prepared by earlier published protocol; PLP enzyme
T1 sequence (P69910 1-466): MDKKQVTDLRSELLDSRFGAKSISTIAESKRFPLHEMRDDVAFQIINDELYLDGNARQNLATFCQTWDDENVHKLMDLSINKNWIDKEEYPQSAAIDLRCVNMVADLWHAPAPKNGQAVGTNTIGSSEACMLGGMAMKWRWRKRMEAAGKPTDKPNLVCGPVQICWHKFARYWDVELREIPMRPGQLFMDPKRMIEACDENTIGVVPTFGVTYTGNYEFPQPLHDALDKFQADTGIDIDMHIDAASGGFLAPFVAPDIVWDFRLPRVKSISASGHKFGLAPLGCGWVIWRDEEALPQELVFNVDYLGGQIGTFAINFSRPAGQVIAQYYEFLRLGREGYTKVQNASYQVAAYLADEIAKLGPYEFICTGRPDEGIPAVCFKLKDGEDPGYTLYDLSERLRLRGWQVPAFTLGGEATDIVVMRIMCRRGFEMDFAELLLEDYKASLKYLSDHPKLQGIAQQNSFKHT

[2] = substrate: N[C@@H](CCS(=O)O)C(=O)O; assay: purified protein; assay type: biochemical, Escherichia coli; settings: pyridine/HCl 0.2 M (0.1 M in Figure 2 legend), pH 4.6, 37 °C, 1 mM PLP, 0.1 mM DTT, 3-300 mM substrate

Molecule: N[C@@H](CCC(=O)O)C(=O)O [L-Glu, L-Glutamic acid]
- Km [1]: 840 ± 90 µM

B1: EcGadB (Escherichia coli K-12) (protein)
chain: T1 sequence (P69910 1-466)
notes: recombinant, purified full-length enzyme, prepared by earlier published protocol; PLP enzyme
- Km [2]: 38.24 ± 3.45 mM
- kcat [2]: 33.9 ± 1.07 s⁻¹
- kcat/Km [2]: 890 ± 90 M⁻¹ s⁻¹
